Laboratory results taken from patent publication US20190276499A1, “Protein VII Fragments and Methods of Use Thereof for the Treatment of Inflammatory Disorders” (priority 2016, published 2019).

Assays:
HMGB1 [1] = target: T1, HMGB1 (Homo sapiens, UniProt P09429); experiment: GFP immunoprecipitation from A549 cells transfected with protein VII-GFP constructs; type: cell-based; design: endogenous in cells; host or cells: A549; conditions: A549 cells transfected 24 hours
T1 sequence (P09429 1-215): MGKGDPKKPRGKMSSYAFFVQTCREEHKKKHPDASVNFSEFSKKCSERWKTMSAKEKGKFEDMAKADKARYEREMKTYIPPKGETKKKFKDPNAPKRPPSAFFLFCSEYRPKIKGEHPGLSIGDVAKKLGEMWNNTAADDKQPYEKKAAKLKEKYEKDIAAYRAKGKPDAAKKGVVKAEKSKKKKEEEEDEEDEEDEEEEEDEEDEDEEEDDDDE
Method: We further narrowed down this binding region through expression of protein VII peptides tagged with GFP. […] Cellular fractionation of A549 cells transfected for 24 hours with GFP and the different protein VII constructs is shown in FIG. 7C.

HMGB1 [2] = target: T1, HMGB1; experiment: Precision cut lung slice (PCLS) immunofluorescence; type: cell-based; design: tissue National Disease Research Interchange (NDRI); host or cells: human precision cut lung slices; conditions: PCLS from human donors
Method: PCLS were obtained and prepared as described (Cooper et al. (2008) J. Allergy Clin. Immunol., 122:734-740; Koziol-White et al. (2011) Expert Rev. Respir. Med., 5:767-777). De-identified human lung tissue from donors was obtained from the National Disease Research Interchange (NDRI), Philadelphia, Pa. Samples were infected with 10^8 pfu of Ad5 per slice or 10^9 GC of rAd VII-GFP for 24 hours. Samples were fixed in 4% PFA at room temperature for 15 minutes and washed three times in PBS. Samples were permiabilized with 0.5% Triton X and washed twice more in PBS. Samples were then incubated with 3% BSA and 0.03% Triton X in PBS for 1 hour to block. Primary antibodies (DBP or HMGB1) were incubated in the same buffer for 1 hour and then samples were washed three times in PBS with 3% BSA, incubated with secondary antibodies and DAPI for 1 hour, and washed three more times. Whole slices were mounted on slides with mounting solution and imaged by confocal microscopy.

B1: protein VII: mature protein VII of human adenovirus type 5 (SEQ ID NO:1), expressed in cells, mostly with C-terminal HA tag (protein)
chain: AKKRSDQHPVRVRGHYRAPWGAHKRGRTGRTTVDDAIDAVVEEARNYTPTPPPVSTVDAAIQTVVRGARRYAKMKRRRRRVARRHRRRPGTAAQRAAAALLNRARRTGRRAAMRAARRLAAGIVTVPPRSRRRAAAAAAAAISAMTQGRRGNVYWVRDSVSGLRVPVRTRPPRN
modifications: C-terminal HA tag; Human adenovirus 5
HMGB1 [1]
  Pull-down of HMGB1 by GFP immunoprecipitation: able to pull-down HMGB1
HMGB1 [2]
  Relocalization of endogenous HMGB1 in lung slices: sufficient to relocalize endogenous HMGB1
